The target in experiment [1] is T1, RNAP β′ subunit with chromosomally encoded C-terminal His10-tag (B. subtilis, UniProt P37871 1-1199).
T1 construct: RNAP β′ subunit, B. subtilis; source: B. subtilis strains MH5636, LK782, LK1032; in lysate and purified as part of RNAP (Ni-NTA, heparin, SEC); not shown: His10, C-terminal, kept
The experiment can be described thus: co-purification; RNAP captured from lysates of stationary phase B. subtilis by the C-terminal His10-tag on β′ (Ni-NTA), then heparin column and SEC, 4 °C; content of the fractions told from gels (strains MH5636, LK782, LK1032). The note with it: partners not purified.

For experiment [2], the target named is T2, HelD (recombinant B. subtilis NTPase HelD) (Bacillus subtilis (strain 168), UniProt O32215).
T2 chain: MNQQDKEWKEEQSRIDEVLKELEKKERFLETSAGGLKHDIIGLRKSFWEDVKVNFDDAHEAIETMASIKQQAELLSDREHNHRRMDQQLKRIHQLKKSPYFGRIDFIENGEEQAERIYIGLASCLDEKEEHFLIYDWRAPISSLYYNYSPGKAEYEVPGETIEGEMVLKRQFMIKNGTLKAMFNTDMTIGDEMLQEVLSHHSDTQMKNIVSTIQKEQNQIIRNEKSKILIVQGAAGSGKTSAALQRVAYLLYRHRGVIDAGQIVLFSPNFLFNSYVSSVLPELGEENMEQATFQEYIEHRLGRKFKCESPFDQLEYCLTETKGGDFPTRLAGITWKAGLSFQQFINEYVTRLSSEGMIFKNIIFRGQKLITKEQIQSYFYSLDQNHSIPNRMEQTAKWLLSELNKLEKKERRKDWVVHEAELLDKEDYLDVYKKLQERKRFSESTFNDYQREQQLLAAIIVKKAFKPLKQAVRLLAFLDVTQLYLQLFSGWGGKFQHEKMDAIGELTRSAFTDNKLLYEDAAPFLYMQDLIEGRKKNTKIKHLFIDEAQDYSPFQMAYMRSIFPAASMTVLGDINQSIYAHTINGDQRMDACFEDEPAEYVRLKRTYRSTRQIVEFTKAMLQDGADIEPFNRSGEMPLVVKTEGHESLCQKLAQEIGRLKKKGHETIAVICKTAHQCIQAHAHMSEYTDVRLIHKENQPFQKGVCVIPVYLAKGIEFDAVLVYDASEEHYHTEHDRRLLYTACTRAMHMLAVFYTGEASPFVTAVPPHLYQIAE
In words: analytical SEC with SDS-PAGE.

For experiment [3], the target named is T1, RNAP β′ subunit with chromosomally …. In words: SEC; HelD release assay: the same RNAP-HelD complex mixed with 5 mM Mg^2+-ATPγS, AMPPNP or ATP in buffer I; Superdex 200 Increase PC 3.2, 4 °C; fractions on SDS-PAGE. The note with it: both partners purified. (SEC sorts molecules by how far they enter the pores of the column.)

The values that follow come from PMC7749165, “The δ subunit and NTPase HelD institute a two-pronged mechanism for RNA polymerase recycling” (Nature Communications, 2020).

T1 sequence (P37871 whole entry): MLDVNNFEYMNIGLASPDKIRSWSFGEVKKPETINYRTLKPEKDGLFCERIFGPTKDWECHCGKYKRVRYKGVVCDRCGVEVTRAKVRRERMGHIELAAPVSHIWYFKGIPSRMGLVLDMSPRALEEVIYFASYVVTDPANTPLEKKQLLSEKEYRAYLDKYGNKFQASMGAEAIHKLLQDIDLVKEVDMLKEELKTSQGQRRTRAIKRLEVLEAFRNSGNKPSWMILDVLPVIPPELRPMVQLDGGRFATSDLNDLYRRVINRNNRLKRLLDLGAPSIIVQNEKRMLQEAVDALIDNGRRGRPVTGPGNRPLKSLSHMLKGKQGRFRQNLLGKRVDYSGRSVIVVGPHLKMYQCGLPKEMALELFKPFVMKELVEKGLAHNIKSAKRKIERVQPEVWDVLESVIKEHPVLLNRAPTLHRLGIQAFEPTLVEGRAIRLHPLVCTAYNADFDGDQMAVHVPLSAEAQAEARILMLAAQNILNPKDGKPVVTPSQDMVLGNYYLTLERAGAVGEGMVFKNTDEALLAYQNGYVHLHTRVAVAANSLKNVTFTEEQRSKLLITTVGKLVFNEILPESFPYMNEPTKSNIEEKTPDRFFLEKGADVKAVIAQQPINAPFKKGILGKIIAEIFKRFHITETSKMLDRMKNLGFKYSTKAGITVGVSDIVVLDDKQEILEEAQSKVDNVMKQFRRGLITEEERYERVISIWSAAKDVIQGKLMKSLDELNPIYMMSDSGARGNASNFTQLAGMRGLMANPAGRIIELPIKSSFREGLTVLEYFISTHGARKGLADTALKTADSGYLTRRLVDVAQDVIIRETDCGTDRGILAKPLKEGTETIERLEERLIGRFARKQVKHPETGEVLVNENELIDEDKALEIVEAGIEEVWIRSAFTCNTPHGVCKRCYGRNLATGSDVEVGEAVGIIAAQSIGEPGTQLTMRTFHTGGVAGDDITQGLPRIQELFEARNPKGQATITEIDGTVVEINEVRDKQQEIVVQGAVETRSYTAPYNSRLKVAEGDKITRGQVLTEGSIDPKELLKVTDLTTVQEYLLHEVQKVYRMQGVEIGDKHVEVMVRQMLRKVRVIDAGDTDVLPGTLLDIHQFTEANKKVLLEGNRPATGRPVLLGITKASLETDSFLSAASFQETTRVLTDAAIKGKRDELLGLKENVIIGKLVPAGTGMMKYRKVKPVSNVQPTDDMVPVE

B1: RNAP α subunit (natural protein, B. subtilis (endogenous), UniProt P20429 1-314, looked up)
chain: MIEIEKPKIETVEISDDAKFGKFVVEPLERGYGTTLGNSLRRILLSSLPGAAVTSIQIDGVLHEFSTIEGVVEDVTTIILHIKKLALKIYSDEEKTLEIDVQGEGTVTAADITHDSDVEILNPDLHIATLGENASFRVRLTAQRGRGYTPADANKRDDQPIGVIPIDSIYTPVSRVSYQVENTRVGQVANYDKLTLDVWTDGSTGPKEAIALGSKILTEHLNIFVGLTDEAQHAEIMVEKEEDQKEKVLEMTIEELDLSVRSYNCLKRAGINTVQELANKTEEDMMKVRNLGRKSLEEVKAKLEELGLGLRKDD
notes: RNAP α subunit, B. subtilis; only the N-terminal domains have density in the structures; also called α1; α2; source: endogenous, B. subtilis; in lysate and purified as part of RNAP
Consider B1, for which, in experiment [1], the binding result was “binds”.

B2: δ^NTD (N-terminal domain of the RNAP δ subunit) (protein)
chain: MGIKQYSQEELKEMALVEIAHELFEEHKKPVPFQELLNEIASLLGVKKEELGDRIAQFYTDLNIDGRFLALSDQTWGLRSWYPYDQLDEE
In the case of B2, in experiment [2], the binding result is “no binding”.

B3: RNAP δ subunit, endogenous (natural protein, B. subtilis (endogenous), UniProt P12464 1-173, looked up)
chain: MGIKQYSQEELKEMALVEIAHELFEEHKKPVPFQELLNEIASLLGVKKEELGDRIAQFYTDLNIDGRFLALSDQTWGLRSWYPYDQLDEETQPTVKAKKKKAKKAVEEDLDLDEFEEIDEDDLDLDEVEEELDLEADDFDEEDLDEDDDDLEIEEDIIDEDDEDYDDEEEEIK
notes: RNAP δ subunit, B. subtilis; NTD residues 1-90, CTR residues 91-173; source: endogenous, B. subtilis MH5636 or LK782; in lysate and purified as part of RNAP
Take B3: the binding result in experiment [3] and in experiment [2] was “binds” throughout.

B4: RNAP β subunit (natural protein, B. subtilis (endogenous), UniProt P37870 1-1193, looked up)
chain: MTGQLVQYGRHRQRRSYARISEVLELPNLIEIQTSSYQWFLDEGLREMFQDISPIEDFTGNLSLEFIDYSLGEPKYPVEESKERDVTYSAPLRVKVRLINKETGEVKDQDVFMGDFPIMTDTGTFIINGAERVIVSQLVRSPSVYFSGKVDKNGKKGFTATVIPNRGAWLEYETDAKDVVYVRIDRTRKLPVTVLLRALGFGSDQEILDLIGENEYLRNTLDKDNTENSDKALLEIYERLRPGEPPTVENAKSLLDSRFFDPKRYDLANVGRYKINKKLHIKNRLFNQRLAETLVDPETGEILAEKGQILDRRTLDKVLPYLENGIGFRKLYPNGGVVEDEVTLQSIKIFAPTDQEGEQVINVIGNAYIEEEIKNITPADIISSISYFFNLLHGVGDTDDIDHLGNRRLRSVGELLQNQFRIGLSRMERVVRERMSIQDTNTITPQQLINIRPVIASIKEFFGSSQLSQFMDQTNPLAELTHKRRLSALGPGGLTRERAGMEVRDVHYSHYGRMCPIETPEGPNIGLINSLSSYAKVNRFGFIETPYRRVDPETGKVTGRIDYLTADEEDNYVVAQANARLDDEGAFIDDSIVARFRGENTVVSRNRVDYMDVSPKQVVSAATACIPFLENDDSNRALMGANMQRQAVPLMQPEAPFVGTGMEYVSGKDSGAAVICKHPGIVERVEAKNVWVRRYEEVDGQKVKGNLDKYSLLKFVRSNQGTCYNQRPIVSVGDEVVKGEILADGPSMELGELALGRNVMVGFMTWDGYNYEDAIIMSERLVKDDVYTSIHIEEYESEARDTKLGPEEITRDIPNVGEDALRNLDDRGIIRIGAEVKDGDLLVGKVTPKGVTELTAEERLLHAIFGEKAREVRDTSLRVPHGGGGIIHDVKVFNREDGDELPPGVNQLVRVYIVQKRKISEGDKMAGRHGNKGVISKILPEEDMPYLPDGTPIDIMLNPLGVPSRMNIGQVLELHMGMAARYLGIHIASPVFDGAREEDVWETLEEAGMSRDAKTVLYDGRTGEPFDNRVSVGIMYMIKLAHMVDDKLHARSTGPYSLVTQQPLGGKAQFGGQRFGEMEVWALEAYGAAYTLQEILTVKSDDVVGRVKTYEAIVKGDNVPEPGVPESFKVLIKELQSLGMDVKILSGDEEEIEMRDLEDEEDAKQADGLALSGDEEPEETASADVERDVVTKE
notes: RNAP β subunit, B. subtilis; source: endogenous, B. subtilis; in lysate and purified as part of RNAP
Regarding B4, the binding result in experiment [1] was “binds”.
